Measurements from PMC9140564 (International Journal of Molecular Sciences, 2022).

T1: pre-S1 oligopeptide of amino acids 25-38 (Hepatitis B virus, strain  …)
T1 construct: pre-S1 region of the hepatitis B virus large surface protein, amino acids 25-38; One of several oligopeptides spanning pre-S1 21-47; also called peptide containing amino acids 25–38; source: synthetic peptide
T1 chain: FPDHQLDPAFGANS

B1: anti-pre-S2 mouse monoclonal antibody (antibody, V domains shown)
VH: QVQLQQPGTELVKPGTSVKLSCKASGYTFTSYWMHWVKLRPGQGFEWIGEINPSNGITNYNEKFKRKATLTVDKSSTTAYMQLSSLTFEDSAVYYCTIGYDYGSNYEAMDFWGQGTSVTVSS
VL: DIVMTQAAFSNPVTLGTSASMSCRSSKSLLHSNGITYLYWYLQKPGQSPQLLIYQMSNLASGVPDRFSSGGSGTDFTLRISRVEAEDVGVYYCAQNLELPWTFGGGTKLEIK
notes: heavy chain CDR1; heavy chain CDR2; heavy chain CDR3; kappa light chain CDR1; kappa light chain CDR2; kappa light chain CDR3; Only the six CDRs are printed; Aliquots were conjugated with biotin for use as detection antibody in the sandwich ELISA; also called pre-S2 antibody; anti-pre-S2 region antibody; source: mouse hybridoma, ascites fluid, purified using IgG beads
B2: anti-pre-S1 mouse monoclonal antibody (clone N-term-7-21-5) (antibody, V domains shown)
VH: DVQLQESGPGLVKPSQSLSLTCTVTGYSITSDYAWNWIRQFPGNKLEWMGYIRYSGTTNYNPSLKSRISITRDTSKNQFFLQLNSVTTEDTATYYCARGGTGLTYWGQGTLVTVSA
VL: NIVMTQSPKSMSMSLGERVTLTCKASENVGTYVSWYQQKPEQSPKLLIYGASNRNTGVPDRFTGSGPATDFTLTISSVQAEDLADYLCGQTYNYPFTFGAGTKLELK
notes: heavy chain CDR1; heavy chain CDR2; heavy chain CDR3; kappa light chain CDR1; kappa light chain CDR2; kappa light chain CDR3; Only the six CDRs are printed; Coating antibody of the sandwich ELISA; also called pre-S1 antibody; LHBS-specific antibody; source: mouse hybridoma, ascites fluid, purified using IgG beads

Assays:
[1] = molecular target: T2, large HBV surface protein (LHBS), full-length, expressed in 293T cells (Hepatitis B virus, strain ; …, UniProt P03141); test: ELISA; lysates of 293T cells transfected with LHBS genes with partial deletions, tested for recognition by the monoclonal antibody; conditions: one partner purified
T2 construct: hepatitis B virus large surface protein: pre-S1 (119 a.a.), pre-S2 (55 a.a.) and S (227 a.a.) regions as printed; also called the full-length; source: 293T cells, transfected, in lysate
T2 sequence (P03141 whole entry): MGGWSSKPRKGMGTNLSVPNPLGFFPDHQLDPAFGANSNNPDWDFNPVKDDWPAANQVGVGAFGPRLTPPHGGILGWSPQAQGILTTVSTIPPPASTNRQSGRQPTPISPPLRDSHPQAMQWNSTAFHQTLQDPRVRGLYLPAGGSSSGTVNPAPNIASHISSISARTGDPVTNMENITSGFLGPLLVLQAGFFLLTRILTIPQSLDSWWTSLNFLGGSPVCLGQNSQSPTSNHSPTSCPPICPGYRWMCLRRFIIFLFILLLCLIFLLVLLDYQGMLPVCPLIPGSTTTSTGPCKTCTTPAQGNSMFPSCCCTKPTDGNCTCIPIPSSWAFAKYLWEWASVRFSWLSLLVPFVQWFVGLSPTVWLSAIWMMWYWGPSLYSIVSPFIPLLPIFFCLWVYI

[2] = molecular target: T3, recombinant pre-S region protein of the HBV large surface protein (LHBS) (Hepatitis B virus, strain ; …, UniProt P03141); test: ELISA; antigen protein or peptide coated on the plate (0.1 ng/uL, or 10-fold serial dilutions), 4 °C overnight; purified monoclonal antibody added (serial dilutions or 1:2000 in PBST); PBST pH 7.4 washes; anti-mouse IgG-HRP, chemiluminescence read-out; conditions: both partners purified
T3 construct: also called pre-S region E. coli recombinant protein; source: E. coli BL21 (pET21b, IPTG 0.2 mM), purified
T3 sequence (P03141 whole entry, looked up): as the sequence (P03141 whole entry) above

[3] = molecular target: T1, pre-S1 oligopeptide of amino acids 25-38; test: as above; conditions: both partners purified

Binder	binding result [1]	binding result [2]	binding result [3]
B1	binds	binds	
B2		binds	binds
